Results taken from the supplement of paper PMC10567573.

B1: MATN2 (parent)
chain: VNVPGSFVCQCYSGYALAEDGKRC

Variants of: B1
Test: protein stability index of a GFP-peptide fusion (GPS, HEK-293T) (PSI 1-6); higher = more stable
Conditions: c terminus: a fixed tail appended
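Also: lentivirally expressed fusions sorted by FACS into six bins by GFP to DsRed ratio, PSI derived from sequencing read proportions per bin multiplied by bin number.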

Variant | protein stability index
VNVPGSFVCQCYWGYALAEDGKRC | 3.15
VNVPGSFVCQCYQGYALAEDGKRC | 1.5
VNVPGSFVCQCYKGYALAEDGKRC | 1.58
VNVPGSFVCQCYPGYALAEDGKRC | 2.47
VNVPGSFVCQCYYGYALAEDGKRC | 1.9
VNVPGSFVCQCYTGYALAEDGKRC | 2.34
VNVPGSFVCQCYSGYALAEDEKRC | 1.84
VNVPGSFVCQCYSGYALAEDWKRC | 1.3
VNVPGSFVCQCYSGYALAEDLKRC | 2.7
VNVPGSFVCQCYSGYALAEDFKRC | 1.58
VNVPGSFVCQCYSGYALAEDQKRC | 2.75
VNVPGSFVCQCYSGYALAEDNKRC | 1.93
VNVPGSFVCQCYSGYALAEDYKRC | 2.18
VNVPGSFVCQCYSGYALAEDSKRC | 2.36
VNVPGSFVCQCYSGYALAEDCKRC | 4.22
VNVPGSFVCQCYSGYALAEAGKRC | 1.9
VNVPGSFVCQCYSGYALAEYGKRC | 1.05
VNVPGSFVCQCYSGYALAENGKRC | 1.34
VNVPGSFVCQCYSGYALAELGKRC | 1.11
VNVPGSFVCQCYSGYALAEPGKRC | 2.42
VNVPGSFVCQCYSGYALAEGGKRC | 1.48
VNVPGSFVCQCYSGYALAETGKRC | 2.12
VNVPGSFVCQCYSGYALAESGKRC | 2.02
VNAPGSFVCQCYSGYALAEDGKRC | 1.49

Variant | protein stability index
VNNPGSFVCQCYSGYALAEDGKRC | 1.73
VNDPGSFVCQCYSGYALAEDGKRC | 2.11
VNMPGSFVCQCYSGYALAEDGKRC | 2.21
VNIPGSFVCQCYSGYALAEDGKRC | 1.23
VNLPGSFVCQCYSGYALAEDGKRC | 2.35
VNTPGSFVCQCYSGYALAEDGKRC | 2.39
VNVPGSFVCQCYSGYALAEDGKEC | 2.78
VNVPGSFVCQCYSGYALAEDGKTC | 2.06
VNVPGSFVCQCYSGYALAEDGKPC | 2.07
VNVPGSFVCQCYSGYALAEDGKGC | 2.56
VNVPGSFVCQCYSGYALAEDGKNC | 2.23
VNVPGSFVCQCYSGYALAEDGKIC | 1.67
VNVPGSFVCQCYSGYALAEDGKWC | 1.64
VNVPGSFVCQCYSGYALAEDGKMC | 2.32
VNVPGSFVCQCYSGYALAEDGKDC | 2.78
VNVPGSFVCQCYSGYALAEDGKYC | 1.83
VNVPGSFVCQCSSGYALAEDGKRC | 2.64
VNVPGSFVCQCFSGYALAEDGKRC | 2.54
VNVPGSFVCQCCSGYALAEDGKRC | 2.87
VNVPGSFVCQCRSGYALAEDGKRC | 2
VNVPGSFVCQCKSGYALAEDGKRC | 1.96
VNVPGSFVCQCHSGYALAEDGKRC | 2.24
VNVPGSFVCQCTSGYALAEDGKRC | 2.95
HNVPGSFVCQCYSGYALAEDGKRC | 1.96

Variant | protein stability index
DNVPGSFVCQCYSGYALAEDGKRC | 2.6
KNVPGSFVCQCYSGYALAEDGKRC | 1.92
TNVPGSFVCQCYSGYALAEDGKRC | 2.36
SNVPGSFVCQCYSGYALAEDGKRC | 3.31
NNVPGSFVCQCYSGYALAEDGKRC | 2.06
WNVPGSFVCQCYSGYALAEDGKRC | 2.91
FNVPGSFVCQCYSGYALAEDGKRC | 3.08
VNVPGSFVCQCYSGYLLAEDGKRC | 1.73
VNVPGSFVCQCYSGYHLAEDGKRC | 2.77
VNVPGSFVCQCYSGYTLAEDGKRC | 1.93
VNVPGSFVCQCYSGYDLAEDGKRC | 2.17
VNVPGSFVCQCYSGYYLAEDGKRC | 1.1
VNVPGSFVCQCYSGYKLAEDGKRC | 1.91
VNVPGSFVCQCYSGYQLAEDGKRC | 1.97
VNVPGSFVCQCYSGYCLAEDGKRC | 3.35
VNVPGSFVCQCYSGYFLAEDGKRC | 2.42
VNVPGSFVCQCYSGYSLAEDGKRC | 1.84
VNVPGSFVCQCYSGYWLAEDGKRC | 1.05
VNVPGSFVCQCYSGYGLAEDGKRC | 2.58
VNVPGSKVCQCYSGYALAEDGKRC | 2.98
VNVPGSAVCQCYSGYALAEDGKRC | 2.85
VNVPGSEVCQCYSGYALAEDGKRC | 2.94
VNVPGSMVCQCYSGYALAEDGKRC | 2.7
VNVPGSPVCQCYSGYALAEDGKRC | 3.13

Variant | protein stability index
VNVPGSSVCQCYSGYALAEDGKRC | 2.62
VNVPGSCVCQCYSGYALAEDGKRC | 2.28
VNVFGSFVCQCYSGYALAEDGKRC | 1.36
VNVEGSFVCQCYSGYALAEDGKRC | 2.46
VNVCGSFVCQCYSGYALAEDGKRC | 2.07
VNVNGSFVCQCYSGYALAEDGKRC | 1.94
VNVRGSFVCQCYSGYALAEDGKRC | 1.33
VNVGGSFVCQCYSGYALAEDGKRC | 1.86
VNVPGSFVCQCYSGYARAEDGKRC | 2.54
VNVPGSFVCQCYSGYAGAEDGKRC | 2.04
VNVPGSFVCQCYSGYAQAEDGKRC | 2.26
VNVPGSFVCQCYSGYATAEDGKRC | 1.75
VNVPGSFVCQCYSDYALAEDGKRC | 1.95
VNVPGSFVCQCYSPYALAEDGKRC | 1.78
VNVPGSFVCQCYSFYALAEDGKRC | 2.6
VNVPGSFVCQCYSKYALAEDGKRC | 2.7
VNVPGSFVCQCYSTYALAEDGKRC | 1.69
VNVPGSFVCQCYSYYALAEDGKRC | 1.86
VNVPGSFVCQCYSIYALAEDGKRC | 3.06
VNVPGSFVCQCYSEYALAEDGKRC | 2.91
VNVPGSFVCQCYSCYALAEDGKRC | 2.16
VNVPGSFVCQCYSMYALAEDGKRC | 2.52
